Experimental data reported in PMC4753521.

Legend:
[1] = target: TFIIH p62 subunit PH domain, 1-108 (UniProt P32780); assay: real-time NMR of complex during CK2 reaction; details: reference: complex before CK2 addition; sites S129
[2] = target: TFIIH p62 subunit PH domain, 1-108 (UniProt P32780); assay: real-time NMR of complex during GRK5 reaction; details: reference: complex before GRK5 addition; sites T55
[3] = target: TFIIH p62 PH (Homo sapiens) (UniProt P32780); assay: ITC; details: cited from earlier work
[4] = target: TFIIH p62 PH (Homo sapiens) (UniProt P32780); assay: ITC; details: cited from earlier work; remark: listed apart in the source
[5] = target: TFIIH p62 PH (Homo sapiens) (UniProt P32780); assay: ITC; details: cited from earlier work; remark: listed apart in the source
[6] = target: TFIIH p62 subunit PH domain, 1-108 (UniProt P32780); assay: real-time NMR of complex during JNK2α2 reaction; details: reference: Thr55-phosphorylated complex before JNK2α2; sites S46

In the case of “XPC AF, 109-156 (from UniProt Q01831) complex after CK2 reaction”, the “binding against the reference” value [1] is reported as “stronger”.
For “p53 TAD, 1-73 (from UniProt P04637) complex after GRK5 reaction”, the “binding against the reference” value [2] was “stronger”.
For p53 TAD2 (from UniProt P04637), the Kd [3] is listed as 5 µM, the Kd [4] is listed as 1 µM and the Kd [5] is listed as 6 µM.
With “p53 TAD, 1-73 (from UniProt P04637) same complex after JNK2α2 reaction” the “binding against the reference” value [6] was “stronger”.
